Numbering of substitutions follows the chain as printed. Numbers in names are those of the source. Where “and” joins values, the source holds several entries; their conditions need not be identical. Identical values can stand only once. Values belong to the binder of their own block, whether it stands above or below them.
Columns and labels:
[1] = biological target: T1, CGRPα (4013281-1000, Bachem) (human, UniProt P06881 83-119, not fully specified); test: BLI (Octet RED 96), α-CGRP on streptavidin biosensors, antibody in solution, 1:1 model
T1 construct: mature; ELISA: coated Bachem CGRPα; also called α-CGRP; human CGRP
T1 peptide (looked up): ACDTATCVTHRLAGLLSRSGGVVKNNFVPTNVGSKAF

[2] = biological target: T1, CGRPα (4013281-1000, Bachem); test: ELISA, coated CGRPα titrated (0-0.2 μg/mL), antibody fixed at 1 μg/mL
[3] = biological target: T1, CGRPα (4013281-1000, Bachem); test: cell-based or functional assay

- Kd [1]: < 1 pM
- koff [1]: < 1e-07 s⁻¹
- kon [1]: 122000 M⁻¹ s⁻¹
- EC50 [2]: 0.0135 µg/mL and 0.036 µg/mL
B1: CGRPM5-BA51.23-IgG2 (antibody, V domains shown)
VH: QVQLVQSGAEVKKPGASVKVSCKASGYTFTRYTMHWIRQAPGQGLEWMGYIYPSSGYTIYNQKFQGRVTMTRDTSTSTVYMELSSLRSEDTAVYYCATEGHYAGNGNYEGYWGQGTTVTVSS
VL: DIVMTQSPSSLSASVGDRVTITCRASSSISSNYLHWYQQKPGKAPKLLIYRTSNLASGVPSRFSGSGSGTDFTLTISSLQPEDFATYYCQQGSSIPFTFGQGTKLEIK
notes: Humanized BA51, IgG2; also called CGRP-BA51.23; CGRP-BA51.23-IgG2

- EC50 [2]: 0.0106 µg/mL
- EC50, cell-based cAMP activation assay (HTRF) with CGRP [3]: 44.9 µg/mL
B2: CGRPM5-BA51.23-IgG2-N105L (antibody, V domains shown)
VH: B1 VH with N105L
VL: B1 VL
notes: IgG2; also called optimized BA51.23 antibody (N105L)

- EC50 [2]: 0.00844 µg/mL
- EC50, cell-based cAMP activation assay (HTRF) with CGRP [3]: 32 µg/mL
B3: CGRPM5-BA51.23-IgG2-N105D (antibody, V domains shown)
VH: B1 VH with N105D
VL: B1 VL
notes: IgG2; also called optimized BA51.23 antibody (N105D)

From patent publication WO2020239014A1 (dated 2020)
